Test results: US20230390362A1, “USE OF TRIGONAL AGONIST HAVING ACTIVITIES TO ALL OF GLUCAGON, GLP-1, AND GIP RECEPTORS IN TREATMENT OF SEQUELAE FOLLOWING RESPIRATORY INFECTIOUS DISEASES” (HANMI PHARM. CO., LTD., priority 2020, published 2023)
Positions of bridges follow the written chain, without caps; N, C: chain ends. Non-standard residues stand in square brackets, D forms with d. No end group written: not given here. *: point of attachment. Acetyl(2-(4-imidazolyl)) = O=C(Cc1c[nH]cn1)*; Aib = CC(C)(N)C(=O)O

B1: trigonal agonist of SEQ ID NO: 52 (peptide)
peptide: H[Aib]QGTFTSDYSKYLDEKRQKEFVQWLLDTC
modifications: bridge 16-20
B2: trigonal agonist of SEQ ID NO: 54 (peptide)
peptide: H[Aib]EGTFTSDYSIAMDEIHQKDFVDWLLAEC
modifications: bridge 16-20
B3: trigonal agonist of SEQ ID NO: 53 (peptide)
peptide: H[Aib]EGTFTSDYSIAMDEIHQKDFVNWLLAQC
modifications: bridge 16-20
B4: trigonal agonist of SEQ ID NO: 41 (peptide)
peptide: H[Aib]QGTFTSDKSKYLDECAAQDFVQWLLDGGPSSGAPPPS
B5: trigonal agonist of SEQ ID NO: 6 (peptide)
peptide: H[Aib]QGTFTSDVSSYLDGQAAKEFVAWLLKGC
B6: trigonal agonist of SEQ ID NO: 37 (peptide)
peptide: H[Aib]QGTFTSDYSKYLDECRQKEFVQWLLNGGPSSGAPPPSG
modifications: bridge 16-20
B7: trigonal agonist of SEQ ID NO: 40 (peptide)
peptide: H[Aib]QGTFTSDKSKYLDERACQDFVQWLLDGGPSSGAPPPS
B8: trigonal agonist of SEQ ID NO: 35 (peptide)
peptide: H[Aib]QGTFTSDYSIAMDEIHQKDFVNWLLNTKC
modifications: bridge 16-20
B9: trigonal agonist of SEQ ID NO: 38 (peptide)
peptide: {Acetyl(2-(4-imidazolyl))}-[Aib]QGTFTSDKSSYLDERAAQDFVQWLLDGGPSSGAPPPSS
B10: trigonal agonist of SEQ ID NO: 4 (peptide)
peptide: H[Aib]QGTFTSDVSSYLLGQQQKEFIAWLVKGC
B11: trigonal agonist of SEQ ID NO: 1 (peptide)
peptide: H[Aib]QGTFTSDVSSYLDGQAAKEFIAWLVKGC
B12: trigonal agonist of SEQ ID NO: 50 (peptide)
peptide: H[Aib]QGTFTSDYSKYLDEKRAKEFVQWLLDHHPSSGQPPPSC
modifications: bridge 16-20
B13: trigonal agonist of SEQ ID NO: 55 (peptide)
peptide: H[Aib]QGTFTSDYSIAMDEIHQKDFVNWLLAQC
modifications: bridge 16-20
B14: trigonal agonist of SEQ ID NO: 49 (peptide)
peptide: {Acetyl(2-(4-imidazolyl))}-[Aib]QGTFTSDYSICMDEIHQKDFVNWLLNTK
modifications: bridge 15-19
B15: trigonal agonist of SEQ ID NO: 36 (peptide)
peptide: H[Aib]QGTFTSDYSKYLCEKRQKEFVQWLLNGGPSSGAPPPSG
modifications: bridge 16-20
B16: trigonal agonist of SEQ ID NO: 5 (peptide)
peptide: H[Aib]QGTFTSDVSSYLLGQQQKEFIAWLVKGGGPSSGAPPPSC
B17: trigonal agonist of SEQ ID NO: 51 (peptide)
peptide: H[Aib]QGTFTSDYSKYLDEKRQKEFVQWLLNTC
modifications: bridge 16-20
B18: trigonal agonist of SEQ ID NO: 34 (peptide)
peptide: H[Aib]QGTFTSDYSKYLDEKRQKEFVNWLLAQKC
modifications: bridge 16-20
B19: trigonal agonist of SEQ ID NO: 44 (peptide)
peptide: HGQGTFTSDCSKQLDGQAAQEFVAWLLAGGPSSGAPPPS
B20: trigonal agonist of SEQ ID NO: 45 (peptide)
peptide: HGQGTFTSDCSKYMDGQAAQDFVAWLLAGGPSSGAPPPS
B21: trigonal agonist of SEQ ID NO: 47 (peptide)
peptide: HGQGTFTSDCSKYLDGQRAQEFVAWLLAGGPSSGAPPPS
B22: trigonal agonist of SEQ ID NO: 46 (peptide)
peptide: HGQGTFTSDCSKYLDEQHAQEFVAWLLAGGPSSGAPPPS
B23: trigonal agonist of SEQ ID NO: 48 (peptide)
peptide: HGQGTFTSDCSKYLDGQRAQDFVNWLLAGGPSSGAPPPS
B24: trigonal agonist of SEQ ID NO: 42 (peptide)
peptide: Y[Aib]QGTFTSDYSKYLDEKRAKEFVQWLLDHHPSSGQPPPSC
modifications: bridge 16-20
B25: trigonal agonist of SEQ ID NO: 43 (peptide)
peptide: Y[Aib]QGTFTSDYSKYLDEKRAKEFVQWLLDHHCSSGQPPPS
modifications: bridge 16-20
B26: trigonal agonist of SEQ ID NO: 39 (peptide)
peptide: H[Aib]QGTFTSDYSKYLDGQHAQCFVAWLLAGGGPSSGAPPPS

Tests used:
Test in all cases: cell-based or functional assay
human GLP-1 receptor = human GLP-1 receptor (human, UniProt P43220 24-463)
human GCG receptor = human GCG receptor (human, UniProt P47871 26-477)
human GIP receptor = target: T1, human GIP receptor (human, UniProt P48546 22-466)
T1 sequence (looked up): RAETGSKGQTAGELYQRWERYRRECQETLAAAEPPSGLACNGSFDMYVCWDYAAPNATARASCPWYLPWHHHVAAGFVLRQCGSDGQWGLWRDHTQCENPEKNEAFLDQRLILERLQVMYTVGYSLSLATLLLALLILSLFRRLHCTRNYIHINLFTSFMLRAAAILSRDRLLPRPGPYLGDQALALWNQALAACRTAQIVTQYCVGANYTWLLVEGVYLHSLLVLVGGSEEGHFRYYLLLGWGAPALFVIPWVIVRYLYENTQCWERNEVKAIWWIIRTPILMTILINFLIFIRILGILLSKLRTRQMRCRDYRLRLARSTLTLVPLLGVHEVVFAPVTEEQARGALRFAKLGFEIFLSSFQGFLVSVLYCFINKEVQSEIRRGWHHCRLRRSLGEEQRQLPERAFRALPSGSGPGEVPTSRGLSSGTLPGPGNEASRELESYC

Sequence of human GCG receptor (P47871 26-477): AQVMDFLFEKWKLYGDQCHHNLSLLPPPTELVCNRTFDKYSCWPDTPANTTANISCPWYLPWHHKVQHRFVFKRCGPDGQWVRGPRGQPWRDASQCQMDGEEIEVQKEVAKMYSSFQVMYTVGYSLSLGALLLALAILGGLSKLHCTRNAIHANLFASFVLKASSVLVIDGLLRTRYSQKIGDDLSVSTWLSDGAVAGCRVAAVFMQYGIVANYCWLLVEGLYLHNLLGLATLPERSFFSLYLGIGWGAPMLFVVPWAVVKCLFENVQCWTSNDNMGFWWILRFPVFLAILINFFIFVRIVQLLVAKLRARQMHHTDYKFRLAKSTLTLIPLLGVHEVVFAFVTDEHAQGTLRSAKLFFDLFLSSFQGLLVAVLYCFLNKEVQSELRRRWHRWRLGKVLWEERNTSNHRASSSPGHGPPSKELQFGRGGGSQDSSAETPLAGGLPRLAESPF

Row | Binder | In vitro activity relative to native peptide (%), vs. GLP-1 (cAMP EC50) (human GLP-1 receptor) [%] | In vitro activity relative to native peptide (%), vs. Glucagon (cAMP EC50) (human GCG receptor) [%] | In vitro activity relative to native peptide (%), vs. GIP (cAMP EC50) (human GIP receptor) [%]
1 | B1 | 44.1 | 7.5 | 0.3
2 | B2 | 30.6 | 1.4 | 0.1
3 | B3 | 161 | 8.4 | 1.3
4 | B4 | 34.3 | < 0.1 | < 0.1
5 | B5 | 17 | < 0.1 | < 0.1
6 | B6 | 236 | 6.21 | 2.2
7 | B7 | 75.2 | < 0.1 | < 0.1
8 | B8 | 7.5 | < 0.1 | 1.3
9 | B9 | 2.3 |  | 
10 | B10 | 8.5 | < 0.1 | < 0.1
11 | B11 | 3.2 | < 0.1 | < 0.1
12 | B12 | 67.4 | 50.5 | 2.7
13 | B13 | 27.1 | 0.7 | 2.4
14 | B14 | 29.8 | < 0.1 | 3.3
15 | B15 | 37.4 | 0.39 | 0.2
16 | B16 | 42.1 | < 0.1 | < 0.1
17 | B17 | 14.4 | 2 | 0.1
18 | B18 | 19.1 | 0.92 | 0.6
19 | B19 | 1.3 | < 0.1 | < 0.1
20 | B20 | 6.6 | < 0.1 | < 0.1
21 | B21 | 2.4 | < 0.1 | < 0.1
22 | B22 | 1.4 | < 0.1 | < 0.1
23 | B23 | 1.5 | < 0.1 | < 0.1
24 | B24 | 33.9 | 206 | 7.8
25 | B25 | 12.6 | 88.4 | 3.7
26 | B26 | 13.9 | 0.53 | < 0.1
